Like-named read-outs stand apart in the source and are kept apart here.
In the case of “hCdc14A: Cdc14A phosphorylation mutants (S351,363A and S351,363D)”, the localisation_or_trafficking (phosphorylation at S351) was “no change” and the localisation_or_trafficking (phosphorylation at S363) was “no change”.

Source: publication PMC2668763
